In PMC4775073:

Target: FLAG-CTRwt (full-length) (human) (UniProt P30988)
Test: proximity ligation; in situ PLA (Duolink) on fixed PC cells (PC-3CTRwt, PC-3CTR∆ESS, LNCaP) with anti-ZO-1 and anti-CTR sera; with/without 50 nM CT for 30 seconds; dots per cell counted

Chain of UniProt P30988 (P30988 25-474): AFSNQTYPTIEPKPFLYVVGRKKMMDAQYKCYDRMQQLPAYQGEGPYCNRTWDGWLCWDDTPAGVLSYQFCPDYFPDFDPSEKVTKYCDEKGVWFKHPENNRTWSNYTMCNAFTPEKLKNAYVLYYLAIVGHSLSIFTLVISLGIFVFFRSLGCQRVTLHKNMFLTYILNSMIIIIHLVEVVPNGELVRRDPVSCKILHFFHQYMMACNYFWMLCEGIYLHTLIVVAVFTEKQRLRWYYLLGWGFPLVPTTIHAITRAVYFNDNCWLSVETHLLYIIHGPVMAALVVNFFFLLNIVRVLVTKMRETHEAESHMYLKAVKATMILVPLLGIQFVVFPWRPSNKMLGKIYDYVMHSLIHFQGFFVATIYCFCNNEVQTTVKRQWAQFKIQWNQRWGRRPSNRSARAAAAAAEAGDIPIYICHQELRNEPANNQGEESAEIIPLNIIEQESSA

fold increase of PLA interactions with 50 nM CT (30 seconds) over no exogenous CT: 80 fold
Substance: Zonula Occludens-1 (ZO-1), endogenous (from UniProt Q07157 1-1748) (natural protein)
